Experimental findings from patent US20020137138A1 are described below.

The target of this assay is human short form of the 5-HT3-A receptor (Genbank accession #D49394) (human) (UniProt P46098). In words: cell-based or functional assay.
Chain of human short form of the 5-HT3-A receptor (Genbank accession #D49394) (human) (P46098 24-478): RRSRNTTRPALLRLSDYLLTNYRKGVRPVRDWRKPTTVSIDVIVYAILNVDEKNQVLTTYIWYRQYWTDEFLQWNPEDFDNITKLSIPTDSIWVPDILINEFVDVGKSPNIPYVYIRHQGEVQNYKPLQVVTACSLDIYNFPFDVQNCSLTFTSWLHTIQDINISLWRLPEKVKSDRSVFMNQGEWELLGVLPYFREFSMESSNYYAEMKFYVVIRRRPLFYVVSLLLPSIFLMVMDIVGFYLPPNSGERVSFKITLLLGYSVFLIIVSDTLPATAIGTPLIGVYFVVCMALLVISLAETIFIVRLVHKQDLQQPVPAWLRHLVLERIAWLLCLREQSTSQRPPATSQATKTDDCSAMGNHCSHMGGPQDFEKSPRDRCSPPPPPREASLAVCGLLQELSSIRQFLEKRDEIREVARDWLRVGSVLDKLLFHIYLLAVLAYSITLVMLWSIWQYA

As to “human 5-HT3-C (human serotonin 5-HT3 receptor modifier subunit 5-HT3-C) (from UniProt Q8WXA8 28-447)”, the 5-HT response, oocytes at a 1.8x fold 5-HT3-C to 5-HT3-A cRNA concentration was determined as 20 % diminished; the peak current to 5-HT, oocytes injected with 5-HT3-C and 5-HT3-A(short) at a ratio of 2:1 was -0.028 nA; the peak response to 10 µM 5-HT (two-electrode voltage clamp, Xenopus oocytes co-injected with 2-fold more 5-HT3-C cRNA, 0.67 ng) was 10 % of control; the response to 10 µM 5-HT, oocytes injected with 5-HT3-C:5-HT3-A(short) at 10:1 (3.35 ng : 0.33 ng cRNA) is -0.01 nA.
